For the assay, the target named is T1, GST-CBD (S. cerevisiae, UniProt P19524 1152-1574).
T1 sequence (looked up): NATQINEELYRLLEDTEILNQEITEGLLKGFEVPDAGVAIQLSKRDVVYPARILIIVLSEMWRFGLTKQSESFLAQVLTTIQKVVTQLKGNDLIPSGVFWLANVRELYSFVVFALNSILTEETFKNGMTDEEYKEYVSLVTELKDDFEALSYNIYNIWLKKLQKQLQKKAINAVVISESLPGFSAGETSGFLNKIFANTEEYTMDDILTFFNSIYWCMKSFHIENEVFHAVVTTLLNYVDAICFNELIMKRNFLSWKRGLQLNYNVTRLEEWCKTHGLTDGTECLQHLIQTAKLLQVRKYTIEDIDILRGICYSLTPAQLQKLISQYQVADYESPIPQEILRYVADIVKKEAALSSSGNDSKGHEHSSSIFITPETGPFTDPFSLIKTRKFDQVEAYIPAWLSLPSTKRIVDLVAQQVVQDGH
In words: pull-down.

B1: 6xHis-Pea2_(221–350) (domain or fragment, S. cerevisiae, UniProt P40091 221-350, looked up)
chain: EKNTSSPPISPNAAAIQEEDSSKKLEELETAFSDLQLAHNFLTKQFENDRAEYVQDIEKLTRTNRELQDKLLNNHSNLSKTEKKLHELEQENKELEKANNKLNSSRHNFGMSSPASSPVTWDPSSPSSVG
As to B1, the binding result is reported as “binds”.

Source of the values: paper PMC7933982 (The Journal of Cell Biology, 2021).
